This note sets out measurements from article doi:10.1101/2020.04.21.032086.

This assay addresses LgBiT-tagged human CXCR4 receptor (UniProt P61073). Briefly: split reporter.

By koff is commonly meant the rate constant with which the complex falls apart. Usually kon stands for a measure of how fast the partners come together. Read a low kon as slow association. Broadly, the pKD is −log10 of the KD, conventionally taken in molar units. The low end stands for a high KD, the high end for a low KD.

B1: purified HiBiT-HaloTag fusion protein (peptide)
chain: VSGWRLFKKIS
B1 gave a koff of 0.00367 s⁻¹, an on-rate (kon) of 10000 M⁻¹ s⁻¹ and a negative-log KD (pKD) of 6.43.
